Data from article PMC8126724, “Infant-Associated Bifidobacterial β-Galactosidases and Their Ability to Synthesize Galacto-Oligosaccharides” (Frontiers in Microbiology, 2021).

Experiments:
[1] = substrate: O=[N+]([O-])c1ccccc1O[C@@H]1O[C@H](CO)[C@H](O)[C@H](O)[C@H]1O; experiment: o-nitrophenol release, A420; format: biochemical, Bifidobacterium breve; conditions: 0.1 M sodium acetate pH 6.5, 40 °C, unit mM, not in table
Source text: o-nitrophenol release, A420 on BgaA

[2] = substrate: O=[N+]([O-])c1ccccc1O[C@@H]1O[C@H](CO)[C@H](O)[C@H](O)[C@H]1O; experiment: o-nitrophenol release, A420; format: biochemical, Bifidobacterium breve; conditions: 0.1 M sodium acetate pH 6.5, 40 °C, unit mM, not in table; remark: listed apart in the source
Source text: o-nitrophenol release, A420 on BgaB

B1: BgaA (Bifidobacterium breve UCC2003) (protein)
chain: MTNLQSAQQFSQAWLTDPRVFAVNRLAAHSSHKFYDHAPQCGEAMDLKQSLDGQWRVQMVDLADLADNELAEAAFAQPGYDAAGFSPIEVPSALETKGFLNHQYVNQQYPWSGHESPVAPDVPKHNHVALYRHEFSLEPKAAAVLEANKTAADDAAKRRVTLIFQGAATAIVVWLNGAFIGYAEDSFTPSEFDVTDVLRDGVNTLAVACFEFSSASWLEDQDFWRLHGIFRSVELEAQPLVHVNDLRVLADYDHTTGEGSLDVVALVRNAGTAAAVAATVLDAAGNTVWHSKLTAGADAETLTVKANVGKVNPWSAEEPTLYTLQVVATDAAGQVIEAALQRIGFRHFAIEDGLMKLNGKRIVFKGVDRHEFDARTGRTIAEADMIEDIHSFKRLNINAVRTSHYPNETRWYELCDEYGIYVLDETNLETHGSWTDPGDVFQPARAIPGSKDEWRAACVDRTASMVRRDYNHPSVVIWSLGNEAFGGDVFYSMRDFVHENDPFRPVHYEGTFNDPEFSAATDIMSRMYAKPDEIVKLYLGEDGKKPYISCEYSHSMGNSTGGLHLYTELERYPLYQGGFIWDYVDQALWQDCGDGTERLAYGGDFEDRPNDYEFSGDGVMFADRTPSPKAQEVKQLYANVKLVPDESGVTITNDNLFISTASSLFTARVLVDGVECWHANYRFDVPAGETVREPIAFPKVTDLVALSGSAEVTYEVDQRLAEATDWAPAGYELTFGQYVAAVSFDDGAADAVVAGDAEVAADGFNAGIHTDFGEVLLSKTQGGMVSFKRDGREMVIRRPNLTTFRALTDNDRGNGSGFERAQWMAAGRYARVTGTSVEETADGKGLKATYSYELADAKHTPVTVHYEVDAALRVHLTVKYPGEADAATLPAFGLEWILPKQYDRLRFYGLGPEETYADRLHGAKLGVFSRTAAEDCAPYLLPQETGNHEQVRWAEITDEYGHGMRVTAAGGTRFATSLLPYSSLMLEDALHQNELPKPRHTFLRLLAAQMGVGGDDTWGAPVHDEFQVPADQPLKLDVTLELI
notes: His6-tagged, expressed in Lactococcus lactis (pNZ8150), Ni-purified; dimer
For B1, the Km [1] was 10.8 mM.

B2: BgaB (Bifidobacterium breve UCC2003) (protein)
chain: MEHREFKWPQPLAGGKPRIWYGGDYNPDQWPEEVWDEDVALMQKAGVNLVSVAIFSWAKLEPEEGVYDFDWLDRVIDKLGKAGIAVDLASGTASPPMWMTQAHPEILWVDYRGDVCQPGARQHWRATSPVFLDYALNLCRKMAEHYKDNPYVVSWHVSNEYGCHNRFDYSEDAERAFQKWCEKKYGTIDAVNDAWGTAFWAQRMNNFSEIIPPRFIGDGNFMNPGKLLDWKRFSSDALLDFYKAERDALLEIAPKPQTTNFMVSAGGAGIDYDKWGYDVDFVSNDHYFTPGEAHFDELAYSASLCDGIARKNPWFLMEHSSSAVNWRPINYRVEPGELVRDSLAHLAMGADAICYFQWRQSKAGAEKWHSSMVPHAGPDSQIFRDVCELGADLNKLADEGLLSTKLVKSKVAVVFDYESQWATEHTATPTQEVRHWTEPLAWFRALADNGLTADVVPVRGPWDEYEAVVLPSLTILSEETTRRVREYVANGGKLFVTYYTGLVDDKDHVWLGGYPGSIRDVVGVRVEEFAPMGNDFPGAMDHLDLDNGTVAHDFADVITSVADTAHVVASFKADKWTGFDGAPAITINDFGDGKAAYVGARLGREGLAKSLPALLEELGIETSAEDDRGEVLRVERADETGENHFVFLFNRTHDVAIVDVDGEPLVASLAQVNESEHTAAIQPNGVLVVKL
notes: His6-tagged, expressed in Lactococcus lactis (pNZ8150), Ni-purified; trimer
Protein B2 has a Km [2] of 8.607 mM.
